Data from US20260242478A1 (published 2026).
Where no end group is shown, it is not given here.

What follows are binders tested against T1, Anti-CD28 scFv (VH - linker 1 - VL) (biotinylated (site not stated)) (assay: phage ELISA; biotinylated anti-CD28 scFv on neutravidin plate, clonal phage supernatant, anti-M13-HRP;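 further: before the phage were added, wells were pre-incubated with soluble CD28 protein in blocking buffer, or with blocking buffer alone, and were not washed in between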).
T1 construct: Biotinylated scFv captured on neutravidin coated plates in the panning ELISA
T1 sequence (scFv, as listed by the source): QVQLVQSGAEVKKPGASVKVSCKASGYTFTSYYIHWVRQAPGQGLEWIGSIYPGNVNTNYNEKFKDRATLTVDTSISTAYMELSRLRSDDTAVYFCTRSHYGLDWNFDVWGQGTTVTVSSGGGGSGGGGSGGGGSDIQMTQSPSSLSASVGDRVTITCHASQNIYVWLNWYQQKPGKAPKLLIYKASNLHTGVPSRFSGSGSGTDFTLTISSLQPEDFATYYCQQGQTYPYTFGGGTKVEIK

Row | Binder | CD28 scFv signal
1 | MDWCPSYLWPVCFN [Phage-365] | 1.18
2 | MHWCPLYLWDECFY [Phage-366] | 1.16
3 | MDWCPSFLWYECFN [Phage-367] | 1.13
4 | MDWCPRSLWAQCFY [Phage-364] | 1.39

Each binder was assayed against T1, Anti-CD28 scFv (VH - linker 1 - VL) (assay: phage ELISA as above, wells pre-incubated with soluble CD28 (competitor);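 further: ELISA of crude clonal phage supernatants added to wells pre-treated with soluble CD28 in blocking buffer, bound phage read out with HRP-conjugated anti-M13 antibody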).
Protocol: (§1) Clonal phage were harvested as crude supernatants and screened via standard enzyme linked immunosorbent assays (ELISAs). […] Prior to the addition of clonal phage, wells were incubated with blocking buffer and CD28 soluble protein or blocking buffer alone. Without washing or aspirating, clonal phage supernatants were then added to the wells and incubated for a short time. Wells were then washed followed by detection of bound phage using a horse radish peroxidase conjugated anti-M13 antibody.

Row | Binder | CD28 scFv signal in presence of CD28
5 | MDWCPSYLWPVCFN [Phage-365] | 0.131
6 | MHWCPLYLWDECFY [Phage-366] | 0.376
7 | MDWCPSDMWANCFF [Phage-389] | 0.316
8 | MDWCPSFLWYECFN [Phage-367] | 0.104
9 | MDWCPRSLWAQCFY [Phage-364] | 0.14

What follows are binders tested against T2, Anti-CD28 scFv (VH - linker 1 - VL) (biotinylated (site not stated)) in the same assay as above.
T2 construct: Captured as biotinylated scFv on neutravidin plates in the panning ELISA
T2 sequence (scFv, as listed by the source): as above

Row | Binder | CD28 scFv signal in presence of CD28
10 | MDWCPFDMWADCFF [Phage-391] | 0.215
11 | MDWCPKDMWAECFN [Phage-395] | 0.457
12 | MDWCPRYMWSDCFF [Phage-394] | 0.377
13 | MDWCPSDMWSNCFN [Phage-413] | 0.121
14 | MDWCPMYMWHKCFH [Phage-415] | 0.168
15 | IDWCPRYMWHECFF [Phage-410] | 0.164
16 | MNWCPIHMWNQCFA [Phage-407] | 0.133
17 | MDWCPRAMWDYCFY [Phage-397] | 0.339
18 | QHWCPRDMWNDCYA [Phage-412] | 0.149
19 | MDWCPRDMWFECFN [Phage-393] | 0.778
20 | MDWCPMSMWAFCFD [Phage-405] | 0.16
21 | MHWCPTYMWSECFA [Phage-400] | 0.161
22 | MSWCPWDMWNECFA [Phage-403] | 0.108
23 | LYWCPRDMWAYCYS [Phage-414] | 0.157
24 | MSWCPRFMWHECFN [Phage-411] | 0.246
25 | MDWCPRHMWHECFH [Phage-402] | 0.171
26 | MDWCPRSMWDSCFN [Phage-399] | 0.142
27 | LHWCPITMWTYCYY [Phage-409] | 0.516
28 | TDWCPRDMWYLCFN [Phage-396] | 0.301
29 | MDWCPRDMWTSCFN [Phage-404] | 0.179
30 | MFWCPKDMWAECFA [Phage-408] | 0.113
31 | MDWCPRNMWNECFF [Phage-398] | 0.43
32 | MNWCPIDMWTECFN [Phage-406] | 0.175
33 | MDWCPLDMWVLCFA [Phage-401] | 0.169

Each binder was assayed against T3, Anti-CD28 scFv (VH - linker 1 - VL) (biotinylated (site not stated)) (assay: phage ELISA; biotinylated anti-CD28 scFv on neutravidin plate, wells pre-incubated with soluble CD28 (competitor), anti-M13-HRP detection;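 further: bound clonal phage detected by peroxidase-labelled anti-M13 antibody, compared against wells given blocking buffer alone without soluble CD28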).
T3 construct: Biotinylated scFv captured on neutravidin coated plates in the panning ELISA
T3 sequence (scFv, as listed by the source): as above

Row | Binder | CD28 scFv signal in presence of CD28
34 | MDWCPRSLWFLCFN (tested as crude phage supernatant) [Phage-281] | 1.77
35 | MDWCPIYLWAECFN (tested as crude phage supernatant) [Phage-299] | 0.307
36 | MDWCPRYLWHVCFY (tested as crude phage supernatant) [Phage-291] | 1.14
37 | MDWCPRYLWHVCFD (tested as crude phage supernatant) [Phage-302] | 0.31
38 | MDWCPRDLWFACFA (tested as crude phage supernatant) [Phage-282] | 0.794
39 | MDWCPRHLWNECFN (tested as crude phage supernatant) [Phage-283] | 0.393
40 | MDWCPRHLWFECFF (tested as crude phage supernatant) [Phage-300] | 0.479
41 | MDWCPRHLWFECFN (tested as crude phage supernatant) [Phage-293] | 0.171
42 | MDWCPRHLWNECFA (tested as crude phage supernatant) [Phage-306] | 0.17
43 | MDWCPIALWDFCFA (tested as crude phage supernatant) [Phage-288] | 0.492
44 | MDWCPRYLWDYCFA (tested as crude phage supernatant) [Phage-280] | 0.382
45 | MDWCPRSLWDYCFA (tested as crude phage supernatant) [Phage-294] | 0.235
46 | MDWCPRALWDHCFF (tested as crude phage supernatant) [Phage-292] | 0.394
47 | MDWCPRDLWAMCFA (cysteine pairing not given here; also: displayed on phage as fusion to pIII, tested as crude phage supernatant) [Phage-285] | 0.889
48 | MDWCPKSLWAECFN (tested as crude phage supernatant) [Phage-308] | 0.162
49 | MDWCPRDLWSVCFS (tested as crude phage supernatant) [Phage-290] | 0.116
50 | MDWCPRYLWPVCFH (tested as crude phage supernatant) [Phage-307] | 0.602
51 | MDWCPMFLWHECFN (tested as crude phage supernatant) [Phage-309] | 0.591
52 | MDWCPRYLWTECFS (tested as crude phage supernatant) [Phage-303] | 0.329
53 | MDWCPRDLWTECFS (tested as crude phage supernatant) [Phage-305] | 0.174
54 | MERCPRYLWHMCYS (tested as crude phage supernatant) [Phage-286] | 0.84
55 | MDWCPKFLWDECFA (tested as crude phage supernatant) [Phage-304] | 0.376
56 | MDWCPRYLWHECFF (tested as crude phage supernatant) [Phage-301] | 0.682

What follows are binders tested against T2, Anti-CD28 scFv (VH - linker 1 - VL) (assay: phage ELISA: biotinylated anti-CD28 scFv on neutravidin plate, clonal phage supernatant, anti-M13-HRP detection;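 further: competition format: before phage supernatant was added, wells were preincubated with soluble CD28 protein or with blocking buffer only, and phage were added without an intervening wash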).
Protocol: as §1

Row | Binder | CD28 scFv signal
57 | MDWCPFDMWADCFF [Phage-391] | 2.53
58 | MDWCPKDMWAECFN [Phage-395] | 2.11
59 | MDWCPRYMWSDCFF [Phage-394] | 2.28
60 | MDWCPSDMWSNCFN [Phage-413] | 1.07
61 | MDWCPMYMWHKCFH [Phage-415] | 0.987
62 | IDWCPRYMWHECFF [Phage-410] | 1.18
63 | MNWCPIHMWNQCFA [Phage-407] | 1.37
64 | MDWCPRAMWDYCFY [Phage-397] | 2.11
65 | QHWCPRDMWNDCYA [Phage-412] | 1.08
66 | MDWCPRDMWFECFN [Phage-393] | 2.42
67 | MDWCPMSMWAFCFD [Phage-405] | 1.41
68 | MHWCPTYMWSECFA [Phage-400] | 1.84
69 | MSWCPWDMWNECFA [Phage-403] | 1.52
70 | LYWCPRDMWAYCYS [Phage-414] | 1.02
71 | MSWCPRFMWHECFN [Phage-411] | 1.11
72 | MDWCPRHMWHECFH [Phage-402] | 1.81
73 | MDWCPRSMWDSCFN [Phage-399] | 2.02
74 | LHWCPITMWTYCYY [Phage-409] | 1.21
75 | TDWCPRDMWYLCFN [Phage-396] | 2.11
76 | MDWCPRDMWTSCFN [Phage-404] | 1.41
77 | MFWCPKDMWAECFA [Phage-408] | 1.26
78 | MDWCPRNMWNECFF [Phage-398] | 2.1
79 | MNWCPIDMWTECFN [Phage-406] | 1.4
80 | MDWCPLDMWVLCFA [Phage-401] | 1.84

What follows are binders tested against T3, Anti-CD28 scFv (VH - linker 1 - VL) (assay: phage ELISA; biotinylated anti-CD28 scFv on neutravidin plate, clonal phage supernatant, anti-M13-HRP detection;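 further: before phage addition, wells were pretreated with soluble CD28 protein in blocking buffer, or with blocking buffer only as the comparison, then phage were added without washing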).

Row | Binder | CD28 scFv signal
81 | MDWCPRSLWFLCFN (tested as crude phage supernatant) [Phage-281] | 2.71
82 | MDWCPIYLWAECFN (tested as crude phage supernatant) [Phage-299] | 2.45
83 | MDWCPRYLWHVCFY (tested as crude phage supernatant) [Phage-291] | 2.5
84 | MDWCPRYLWHVCFD (tested as crude phage supernatant) [Phage-302] | 2.44
85 | MDWCPRDLWFACFA (tested as crude phage supernatant) [Phage-282] | 2.66
86 | MDWCPRHLWNECFN (tested as crude phage supernatant) [Phage-283] | 2.65
87 | MDWCPRHLWFECFF (tested as crude phage supernatant) [Phage-300] | 2.45
88 | MDWCPRHLWFECFN (tested as crude phage supernatant) [Phage-293] | 2.49
89 | MDWCPRHLWNECFA (tested as crude phage supernatant) [Phage-306] | 2.39
90 | MDWCPIALWDFCFA (tested as crude phage supernatant) [Phage-288] | 2.52
91 | MDWCPRYLWDYCFA (tested as crude phage supernatant) [Phage-280] | 2.71
92 | MDWCPRSLWDYCFA (tested as crude phage supernatant) [Phage-294] | 2.49
93 | MDWCPRALWDHCFF (tested as crude phage supernatant) [Phage-292] | 2.49
94 | MDWCPRDLWAMCFA (cysteine pairing not given here; also: displayed on phage as fusion to pIII, tested as crude phage supernatant) [Phage-285] | 2.63
95 | MDWCPKSLWAECFN (tested as crude phage supernatant) [Phage-308] | 2.38
96 | MDWCPRDLWSVCFS (tested as crude phage supernatant) [Phage-290] | 2.5
97 | MDWCPRYLWPVCFH (tested as crude phage supernatant) [Phage-307] | 2.39
98 | MDWCPMFLWHECFN (tested as crude phage supernatant) [Phage-309] | 2.38
99 | MDWCPRYLWTECFS (tested as crude phage supernatant) [Phage-303] | 2.42
100 | MDWCPRDLWTECFS (tested as crude phage supernatant) [Phage-305] | 2.4
101 | MERCPRYLWHMCYS (tested as crude phage supernatant) [Phage-286] | 2.59
102 | MDWCPKFLWDECFA (tested as crude phage supernatant) [Phage-304] | 2.41
103 | MDWCPRYLWHECFF (tested as crude phage supernatant) [Phage-301] | 2.45
